Reference: patent US20190016799A1 (HANGZHOU SUMGEN BIOTECHNOLOGY, published 2019)
Like-named read-outs stand apart in the source and are kept apart here.

Assays:
[1] = molecular target: T1, hPD1-Fc (fusion protein of human PD-1 protein extracellular segment-human IgG1 Fc fragment) (human, UniProt Q15116 25-170); test: ELISA, plate coated with hPD1-Fc 1 ug/ml, detection with GAH-Fab-HRP, OD450
T1 construct: extracellular domain; Expressed in CHO-K1 cells; also called hPD1-FC-Biotin (biotin-labeled form); not shown: human IgG1 Fc fragment

[2] = molecular target: T1, hPD1-Fc (fusion protein of human PD-1 …); test: as above; remark: listed apart in the source
monkey PD1 = molecular target: T2, monkey PD1 (monkey); test: ELISA, plate coated with monkey PD1 1 ug/ml, detection with GAH-Fab-HRP, OD450
T2 construct: Bought protein; also called monkey PD1 protein; monkey PD1 antigen

[3] = molecular target: T1, hPD1-Fc (fusion protein of human PD-1 …); test: SPR (BIACORE), antibody captured by anti-human IgG-Fab, hPD1-FC as analyte at 3.125-100 nM
Experimental: (§1) The antibody affinity was analyzed using BIACORE Biomacromolecular Interaction Device (GE).

[4] = molecular target: T1, hPD1-Fc (fusion protein of human PD-1 …); test: blocking ELISA: hPDL1 coated at 1 ug/mL, hPD1-FC-Biotin 5 ug/mL, antibody titrated from 500 ug/mL
Experimental: (§2) The plate was washed 3 times with a washing solution repeatedly, added with HRP-labeled avidin, and placed in the dark at room temperature (20±5° C.) for 45 minutes. The plate was washed 5 times with a washing solution repeatedly, and patted on a drying paper to dry out the residual droplets as possible; added with 100 μl of TMB to each well, and placed in the dark for 3 min at room temperature (20±5° C.); 100 μl of 2N H₂SO₄ stop solution was added to each well to stop the substrate reaction, and the microplate reader was read at 450 nm for the OD value.

BTLA = molecular target: T3, BTLA (UniProt Q7Z6A9 31-157, limits assumed); test: ELISA, plate coated with BTLA 1 ug/ml, detection with GAH-Fab-HRP, OD450; antibody concentration not shown on the sheet
T3 construct: Bought protein

CD28 = molecular target: T4, CD28 (UniProt P10747 19-152); test: ELISA, plate coated with CD28 1 ug/ml, detection with GAH-Fab-HRP, OD450; antibody concentration not shown on the sheet
T4 construct: Bought protein

ICOS = molecular target: T5, ICOS (UniProt Q9Y6W8 21-140, limits assumed); test: ELISA, plate coated with ICOS 1 ug/ml, detection with GAH-Fab-HRP, OD450; antibody concentration not shown on the sheet
T5 construct: Bought protein
T5 sequence (looked up): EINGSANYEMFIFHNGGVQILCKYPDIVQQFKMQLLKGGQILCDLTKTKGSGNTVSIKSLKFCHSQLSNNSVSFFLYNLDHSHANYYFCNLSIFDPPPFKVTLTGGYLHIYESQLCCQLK

CTLA4 = molecular target: T6, CTLA4 (UniProt P16410 36-162); test: ELISA, plate coated with CTLA4 1 ug/ml, detection with GAH-Fab-HRP, OD450; antibody concentration not shown on the sheet
T6 construct: Bought protein

[5] = molecular target: T1, hPD1-Fc (fusion protein of human PD-1 …); test: competition ELISA, plate coated with hPD1-FC 1 µg/mL, competitor BMS01-Biotin 0.5 µg/mL, detection with HRP-avidin, OD450
Experimental: as §2

[6] = molecular target: T1, hPD1-Fc (fusion protein of human PD-1 …); test: SPR (BIACORE), antibody captured by anti-human IgG-Fab on the chip, hPD1-FC as mobile phase at 3.125-100 nM; the text's value is tenfold above Table 1
Experimental: as §1

T1 sequence (Q15116 25-170): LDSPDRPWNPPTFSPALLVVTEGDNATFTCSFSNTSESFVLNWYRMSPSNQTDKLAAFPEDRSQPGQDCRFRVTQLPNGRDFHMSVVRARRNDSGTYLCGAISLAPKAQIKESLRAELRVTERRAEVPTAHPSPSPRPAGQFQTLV
T6 sequence (P16410 36-162 limits assumed): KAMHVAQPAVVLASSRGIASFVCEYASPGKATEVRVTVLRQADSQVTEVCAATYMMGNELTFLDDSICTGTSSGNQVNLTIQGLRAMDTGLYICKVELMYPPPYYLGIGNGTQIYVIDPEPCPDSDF

EC50 (read off the curve) [1]: ~0.05 µg/mL
EC50 (read off the curve) [2]: ~0.03 µg/mL
EC50 (read off the curve) (monkey PD1): ~0.03 µg/mL
Kd [3]: 0.215 nM
koff [3]: 6.85e-05 s⁻¹
kon [3]: 318000 M⁻¹ s⁻¹
IC50 [4]: 1.47 µg/mL
binding result (BTLA): no binding
binding result (CD28): no binding
binding result (ICOS): no binding
binding result (CTLA4): no binding
IC50 (read off the curve) [5]: ~30 µg/mL
Kd [6]: 0.215 nM
B1: SG001 antibody (antibody, human IgG1, kappa, V domains shown)
VH: QVQLVESGGGVVQPGRSLRLTCKASGLTFSSSGMHWVRQAPGKGLEWVAVIWYDGSKRYYADSVKGRFTISRDNSKNTLFLQMNSLRAEDTAVYYCATNNDYWGQGTLVTVSS
VL: EIVLTQSPATLSLSPGERATLSCRASQSVSSYLAWYQQKPGQAPRLLIYTASNRATGIPARFSGSGSGTDFTLTISSLEPEDFAVYYCQQYSNWPRTFGQGTKVEIKR
